# In PMC8963248, “Natural Human Immunity Against Staphylococcal Protein A Relies on Effector Functions Triggered by IgG3” (Frontiers in Immunology, 2022):
# B1: anti-SpA monoclonal antibody mAb-2 in IgG3 scaffold (antibody, V domains shown)
# VH: QVQLVQSGAEVKKPGASVKVSCKASGYTFTRYYMHWVRQAPGQGLEWMGWINPPSGGTNYAQKFQGRVTMTRDTSTSTVYMELSSLRSEDTAVYYCARDPPMGQGMDVWGQGTLVTVSS
# VL: EIVLTQSPATLSVSPGERATLSCRASQSISSYLNWYQQKPGQAPRLLIYAASSLQSGIPARFSGSGSGTEFTLTISSLQSEDFAVYYCQQSFVAPFTFGGGTKVEIK
# notes: heavy variable region; human IgG3 scaffold (heavy constant region); light chain; IgG3; also called IgG3 mAb-2; source: Expi293, transient transfection, purified (protein G)
# B2: anti-SpA monoclonal antibody mAb-1 in IgG3 scaffold (antibody, V domains shown)
# VH: EVQLVESGGGLVQPGGSLRLSCAASGFTFSTYGMSWVRQAPGKGLEWVSSITGSGRSTFYADSVKGRFTISRDNSTNTLSLQMNSLRAEDTAVYYCARSPADIVTGYYPWWFDLWGQGTLVTVSS
# VL: DIQMTQSPSSLSASIGDRVTITCRASQSINTYLNWYQQKPGKAPRLLIAGASSLQSGVPSRFSGSGSGTDFTLTISSLQPEDFATYYCQQANSFPLTFGQGTRLEIK
# notes: heavy variable region; human IgG3 scaffold (heavy constant region); light chain; IgG3; also called IgG3 mAb-1; source: Expi293, transient transfection, purified (protein G)
# B3: anti-SpA monoclonal antibody mAb-3 in IgG3 scaffold (antibody, V domains shown)
# VH: QVQLVQSGAEVKKPGASVKVSCKASGYTFSHYYMHWVRQAPGQGLEWMGIINPRYGSTSYAQKFQGRVTMTRDTSTSTVYMELSSLRSEDTAVYYCARDGEVGARDLGWFDPWGQGTLVTVSS
# VL: EIVLTQSPATLSVSPGERATLSCRASQSVSSNLAWYQQKPGQAPRLLIYGASTRATGIPARFSGSGSGTEFTLTISSLQSEDFAVYYCQQYTPLPWTFGGGTKVEIK
# notes: heavy variable region; human IgG3 scaffold (heavy constant region); light chain; IgG3; also called IgG3 mAb-3; source: Expi293, transient transfection, purified (protein G)
# Target: T1, SpA wild type (Staphylococcal protein A, recombinant) (Staphylococcus aureus NCTC 8325, UniProt P02976, biotinylated (only for the beads of the phagocytosis assays); chemically coupled by amines to MagPlex beads in the Luminex assays)
# T1 construct: Staphylococcal protein A (SpA) of S. aureus strain NCTC 8325, locus tag SAOUHSC_00069; In the functional rows on bacteria the SpA is that on S. aureus USA300 lac, not this recombinant protein; also called SpAwt
# Assay: Luminex bead displacement assay; SpAwt coupled to MagPlex beads, saturated with biotinylated human IgGs (8 µg/mL, 30 min, room temperature), washed, then incubated with serially diluted IgG3 mAbs 1-4 or IgG3 isotype control in PBS; remaining human IgGs revealed with streptavidin-PE
# Conditions: both partners purified
# T1 sequence (P02976 37-485): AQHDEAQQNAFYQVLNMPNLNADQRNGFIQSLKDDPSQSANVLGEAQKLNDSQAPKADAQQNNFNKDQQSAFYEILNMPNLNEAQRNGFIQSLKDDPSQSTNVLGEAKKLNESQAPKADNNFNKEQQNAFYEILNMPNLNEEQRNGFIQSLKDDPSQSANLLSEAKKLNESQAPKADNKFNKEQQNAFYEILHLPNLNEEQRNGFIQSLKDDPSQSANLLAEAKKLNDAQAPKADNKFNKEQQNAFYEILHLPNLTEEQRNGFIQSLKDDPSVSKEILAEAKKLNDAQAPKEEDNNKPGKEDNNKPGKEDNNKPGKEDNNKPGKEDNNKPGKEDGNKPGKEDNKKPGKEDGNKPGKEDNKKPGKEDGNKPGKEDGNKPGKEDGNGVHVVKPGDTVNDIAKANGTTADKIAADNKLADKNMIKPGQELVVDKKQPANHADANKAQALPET
row,Binder,binding result
1,B1,binds
2,B2,binds
3,B3,binds
